Experimental data reported in US20020072115A1.

Molecular target: α6 integrin (mouse) (UniProt Q61739)
Experiment: cell-based or functional assay

Chain of UniProt Q61739 (Q61739 24-1091): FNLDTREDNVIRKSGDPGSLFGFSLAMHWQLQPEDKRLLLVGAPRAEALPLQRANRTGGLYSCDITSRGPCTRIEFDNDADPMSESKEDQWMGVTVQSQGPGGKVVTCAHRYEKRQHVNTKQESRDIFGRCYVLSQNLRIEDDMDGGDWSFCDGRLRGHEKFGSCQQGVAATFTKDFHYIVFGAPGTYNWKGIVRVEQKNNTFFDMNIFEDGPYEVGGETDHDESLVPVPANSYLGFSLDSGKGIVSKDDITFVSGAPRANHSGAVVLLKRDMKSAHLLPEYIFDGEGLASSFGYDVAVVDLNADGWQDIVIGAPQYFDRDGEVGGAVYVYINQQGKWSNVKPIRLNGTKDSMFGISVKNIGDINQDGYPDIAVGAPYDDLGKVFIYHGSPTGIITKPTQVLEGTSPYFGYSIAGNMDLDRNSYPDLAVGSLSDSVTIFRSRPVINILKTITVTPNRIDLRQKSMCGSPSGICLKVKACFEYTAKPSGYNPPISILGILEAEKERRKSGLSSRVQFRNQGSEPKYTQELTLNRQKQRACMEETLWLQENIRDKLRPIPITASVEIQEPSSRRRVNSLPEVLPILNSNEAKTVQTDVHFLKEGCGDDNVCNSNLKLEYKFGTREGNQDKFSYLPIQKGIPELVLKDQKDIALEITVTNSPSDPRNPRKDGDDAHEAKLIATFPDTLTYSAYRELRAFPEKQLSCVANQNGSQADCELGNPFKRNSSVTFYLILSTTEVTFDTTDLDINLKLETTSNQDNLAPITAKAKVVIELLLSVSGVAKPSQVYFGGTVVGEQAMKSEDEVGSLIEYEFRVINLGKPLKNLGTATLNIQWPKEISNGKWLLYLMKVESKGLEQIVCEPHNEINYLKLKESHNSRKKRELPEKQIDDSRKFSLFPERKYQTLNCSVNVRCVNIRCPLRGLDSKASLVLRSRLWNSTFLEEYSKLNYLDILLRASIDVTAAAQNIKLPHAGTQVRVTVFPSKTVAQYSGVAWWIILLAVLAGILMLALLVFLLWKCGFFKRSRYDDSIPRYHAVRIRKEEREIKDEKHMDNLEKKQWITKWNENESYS

Substance: Rat monoclonal antibody (clone NKI-GoH3, IgG2a)
- total cell number per well (13.5 dpc fetal mouse pancreas cells cultured with laminin-1) (cells per well): 7190
- β cell number per well (13.5 dpc fetal mouse pancreas cells cultured with laminin-1) (cells per well): 6890
